Laboratory results reported in patent US20140371142A1 (Johns Hopkins, published 2014).

B1: FLAG epitope-tagged mouse myonectin (CTRP15) (ligand)
chain: LGVPESAEPVGTHARPQPPGAELPAPPANSPPEPTIAHAHSVDPRDAWMLFVKQSDKGINSKRRSKARRLKLGLPGPPGPPGPQGPPGPFIPSEVLLKEFQLLLKGAVRQRESHLEHCTRDLTTPASGSPSRVPAAQELDSQDPGALLALLAATLAQGPRAPRVEAAFHCRLRRDVQVDRRALHELGIYYLPEVEGAFHRGPGLNLTSGQYTAPVAGFYALAATLHVALTEQPRKGPTRPRDRLRLLICIQSLCQHNASLETVMGLENSSELFTISVNGVLYLQAGHYTSVFLDNASGSSLTVRSGSHFSAILLGLDYKDDDDK
modifications: N-linked glycans (sites not given)
notes: Secreted into the supernatant of transfected HEK 293T cells; Disulfide-linked dimer on a non-reducing gel and multimeric on a native gel; also called FLAG-tagged myonectin; recombinant myonectin
B2: HA epitope-tagged CTRP2 (other, mouse)
chain: DPMLGAFARRDFQKGGPQLVCSLPGPQGPPGPPGAPGSSGVVGRMGFPGKDGQDGQDGDRGDSGEEGPPGRTGNRGKQGPKGKAGAIGRAGPRGPKGVSGTPGKHGTPGKKGPKGKKGEPGLPGPCSCGSSRAKSAFSVAVTKSYPRERLPIKFDKILMNEGGHYNASSGKFVCSVPGIYYFTYDITLANKHLAIGLVHNGQYRIRTFDANTGNHDVASGSTILALKEGDEVWLQIFYSEQNGLFYDPYWTDSLFTGFLIYADQGDPNEVYPYDVPDYA
notes: Co-expressed with FLAG-tagged myonectin in HEK 293T cells; supernatants were used for immunoprecipitation
B3: HA epitope-tagged CTRP10 (other, mouse)
chain: HYEMLGTCRMICDPYSVAPAGGPAGAKAPPPGPSTAALEVMQDLSANPPPPFIQGPKGDPGRPGKPGPRGPPGEPGPPGPRGPPGEKGDSGRPGLPGLQLTTSAAGGVGVVSGGTGGGGDTEGEVTSALSAAFSGPKIAFYVGLKSPHEGYEVLKFDDVVTNLGNHYDPTTGKFSCQVRGIYFFTYHILMRGGDGTSMWADLCKNGQVRASAIAQDADQNYDYASNSVVLHLDSGDEVYVKLDGGKAHGGNNNKYSTFSGFLLYPDYPYDVPDYA
notes: as for B2
B4: HA epitope-tagged CTRP5 (other, mouse)
chain: SPPLDDNKIPSLCPGQPGLPGTPGHHGSQGLPGRDGRDGRDGAPGAPGEKGEGGRPGLPGPRGEPGPRGEAGPMGAIGPAGECSVPPRSAFSAKRSESRVPPPADTPLPFDRVLLNEQGHYDPTTGKFTCQVPGVYYFAVHATVYRASLQFDLVKNGQSIASFFQYFGGWPKPASLSGGAMVRLEPEDQVWVQVGVGDYIGIYASIKTDSTFSGFLVYSDWHSSPVFAYPYDVPDYA
notes: as for B2

Assays:
[1] = target: the molecule itself; test: native gel immunoblot, FIG. 4 legend (self-association)
Method: Native gel electrophoresis. Non-denaturing, non-reducing gel electrophoresis was carried out as previously described (PLoS One, 5: e12765).
Myonectin (CTRP15) protein forms disulfide-linked oligomers and heteromeric complexes with other CTRPs. Consistent with the presence of a signal peptide, myonectin was robustly secreted into the conditioned medium when expressed in vitro (FIG. 4A). Secreted myonectin contains N-linked glycans; treatment with PNGase F (an N-glycosidase) reduced the apparent molecular weight of myonectin on immunoblot (FIG. 4B), confirming that one or more of the conserved Asn residues are glycosylated. In the absence of reducing agent (β-ME), myonectin migrated as a dimer on immunoblot (FIG. 4C), indicating the presence of intermolecular disulfide bond. […] Formation of oligomers is a biochemical feature shared by all CTRPs and proteins of the C1q family. […] Similarly, when co-expressed in mammalian cells (HEK 293T), myonectin formed heteromeric complexes with CTRP2 and CTRP12, and, to a lesser extent, with CTRP5 and CTRP10 (FIG. 4E).

[2] = target: B1; test: co-expression in HEK 293T cells, immunoprecipitation then immunoblot of supernatants (FLAG / HA tags)

Row | Binder | binding result [1] | binding result [2]
1 | B1 | binds | –
2 | B2 | – | binds
3 | B3 | – | binds
4 | B4 | – | binds
